The supplement of paper PMC9112550, “Optimization of the antimicrobial peptide Bac7 by deep mutational scanning” (BMC Biology, 2022)

Tested on: Escherichia coli TOP10
Assay: shrunken log2 fold change of peptide-encoding DNA abundance (4.5 h post-induction vs induction); higher = less antimicrobial activity (less host growth inhibition)
Conditions: time post-induction: 4.5 h; library: site-saturation at positions 5, 18, 19, 20
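Note: peptides expressed intracellularly from a pBAD plasmid library in pooled LB shake-flask culture, induced with 0.3% L-arabinose, DNA abundance read by NGS, three biological replicates, DESeq2 with apeglm shrinkage.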

Row | Sequence | shrunken log2 fold change
1 | RRIRERPPRLPRPRPRPSIFPRP | -0.343
2 | RRIRSRPPRLPRPRPRPTQEPRP | 0.342
3 | RRIRARPPRLPRPRPRPQYKPRP | -0.303
4 | RRIRERPPRLPRPRPRPIAAPRP | 0.466
5 | RRIRVRPPRLPRPRPRPQNRPRP | 0.112
6 | RRIRTRPPRLPRPRPRPRKPPRP | 0.225
7 | RRIRIRPPRLPRPRPRPWCQPRP | -0.339
8 | RRIRGRPPRLPRPRPRPFTPPRP | 0.0836
9 | RRIRHRPPRLPRPRPRPGHIPRP | -0.282
10 | RRIRQRPPRLPRPRPRPLQAPRP | 0.0365
11 | RRIRMRPPRLPRPRPRPNPHPRP | 0.269
12 | RRIRTRPPRLPRPRPRPKKVPRP | -0.282
13 | RRIRSRPPRLPRPRPRPEAEPRP | 0.841
14 | RRIRVRPPRLPRPRPRPVYHPRP | -0.544
15 | RRIRHRPPRLPRPRPRPRESPRP | -0.0496
16 | RRIRRRPPRLPRPRPRPSVYPRP | -0.0412
17 | RRIRARPPRLPRPRPRPWVTPRP | -0.127
18 | RRIRCRPPRLPRPRPRPAWSPRP | 0.15
19 | RRIRLRPPRLPRPRPRPHDVPRP | 0.0205
20 | RRIRTRPPRLPRPRPRPRGIPRP | -0.0284
21 | RRIRWRPPRLPRPRPRPMTEPRP | 0.804
22 | RRIRVRPPRLPRPRPRPFSGPRP | -0.337

Row | Sequence | shrunken log2 fold change
23 | RRIRVRPPRLPRPRPRPDVAPRP | -0.0974
24 | RRIRARPPRLPRPRPRPSEIPRP | -0.00993
25 | RRIRVRPPRLPRPRPRPWHSPRP | -0.435
26 | RRIRHRPPRLPRPRPRPMDNPRP | -0.262
27 | RRIRFRPPRLPRPRPRPWMTPRP | 0.0687
28 | RRIRYRPPRLPRPRPRPKGRPRP | -0.258
29 | RRIRIRPPRLPRPRPRPMTWPRP | -0.0244
30 | RRIRRRPPRLPRPRPRPMLGPRP | 0.15
31 | RRIRIRPPRLPRPRPRPWSFPRP | -0.0245
32 | RRIRWRPPRLPRPRPRPQWMPRP | 0.0674
33 | RRIRLRPPRLPRPRPRPCIDPRP | -0.166
34 | RRIRERPPRLPRPRPRPEWMPRP | 0.171
35 | RRIRVRPPRLPRPRPRPLYTPRP | -0.345
36 | RRIRFRPPRLPRPRPRPESTPRP | -0.00608
37 | RRIRSRPPRLPRPRPRPYTCPRP | -0.039
38 | RRIRMRPPRLPRPRPRPQQYPRP | -0.017
39 | RRIRLRPPRLPRPRPRPAVHPRP | -0.149
40 | RRIRSRPPRLPRPRPRPQQLPRP | -0.0917
41 | RRIRIRPPRLPRPRPRPQCLPRP | -0.47
42 | RRIRMRPPRLPRPRPRPTMYPRP | 0.187
43 | RRIRQRPPRLPRPRPRPDPNPRP | -0.187
44 | RRIRIRPPRLPRPRPRPEMYPRP | -0.174

Row | Sequence | shrunken log2 fold change
45 | RRIRYRPPRLPRPRPRPWLPPRP | 0.1
46 | RRIRIRPPRLPRPRPRPDDTPRP | -0.131
47 | RRIRIRPPRLPRPRPRPEISPRP | -0.481
48 | RRIRRRPPRLPRPRPRPLQPPRP | 0.873
49 | RRIRRRPPRLPRPRPRPWTTPRP | 0.201
50 | RRIRNRPPRLPRPRPRPAIGPRP | 0.0499
51 | RRIRMRPPRLPRPRPRPASMPRP | 0.311
52 | RRIRTRPPRLPRPRPRPERKPRP | 0.0268
53 | RRIRGRPPRLPRPRPRPVPKPRP | 0.92
54 | RRIRQRPPRLPRPRPRPNAGPRP | 0.0853
55 | RRIRGRPPRLPRPRPRPLSAPRP | 0.507
56 | RRIRDRPPRLPRPRPRPQERPRP | 0.0671
57 | RRIRDRPPRLPRPRPRPWPNPRP | 0.0619
58 | RRIRDRPPRLPRPRPRPDSPPRP | -0.248
59 | RRIRPRPPRLPRPRPRPEWGPRP | 0.42
60 | RRIRYRPPRLPRPRPRPFPLPRP | -0.109
61 | RRIRPRPPRLPRPRPRPHYKPRP | -0.874
62 | RRIRIRPPRLPRPRPRPEFDPRP | 0.0326
63 | RRIRMRPPRLPRPRPRPNGAPRP | 0.0765
64 | RRIRWRPPRLPRPRPRPMKFPRP | -0.278
65 | RRIRPRPPRLPRPRPRPPYDPRP | -0.173
66 | RRIRGRPPRLPRPRPRPEGWPRP | 1.99

Row | Sequence | shrunken log2 fold change
67 | RRIRNRPPRLPRPRPRPWMFPRP | -0.182
68 | RRIRGRPPRLPRPRPRPLRPPRP | 1.47
69 | RRIRCRPPRLPRPRPRPFFYPRP | -0.32
70 | RRIRPRPPRLPRPRPRPMLQPRP | -0.105
71 | RRIRHRPPRLPRPRPRPGNAPRP | 0.137
72 | RRIRKRPPRLPRPRPRPHTAPRP | 0.239
73 | RRIRQRPPRLPRPRPRPICFPRP | -0.0372
74 | RRIRLRPPRLPRPRPRPRMMPRP | 0.189
75 | RRIRQRPPRLPRPRPRPANRPRP | -0.0467
76 | RRIRRRPPRLPRPRPRPHHCPRP | -0.0737
77 | RRIRTRPPRLPRPRPRPRNHPRP | -0.345
78 | RRIRCRPPRLPRPRPRPEGDPRP | 0.193
79 | RRIRNRPPRLPRPRPRPRVHPRP | 0.172
80 | RRIRDRPPRLPRPRPRPQFEPRP | 0.0888
81 | RRIRGRPPRLPRPRPRPDWPPRP | 0.566
82 | RRIRWRPPRLPRPRPRPYHHPRP | -1.02
83 | RRIRGRPPRLPRPRPRPDLCPRP | 0.445
84 | RRIRGRPPRLPRPRPRPDKCPRP | 0.627
85 | RRIRGRPPRLPRPRPRPDDYPRP | 0.662
86 | RRIRERPPRLPRPRPRPLWFPRP | 0.174
87 | RRIRTRPPRLPRPRPRPHSWPRP | -0.0571
88 | RRIRVRPPRLPRPRPRPDIPPRP | -0.263

Row | Sequence | shrunken log2 fold change
89 | RRIRDRPPRLPRPRPRPESPPRP | 0.000713
90 | RRIRFRPPRLPRPRPRPFLDPRP | -0.169
91 | RRIRLRPPRLPRPRPRPHHTPRP | -0.558
92 | RRIRHRPPRLPRPRPRPTGCPRP | -0.0228
93 | RRIRNRPPRLPRPRPRPGPYPRP | -0.00784
94 | RRIRPRPPRLPRPRPRPWGYPRP | -0.0649
95 | RRIRMRPPRLPRPRPRPRVRPRP | 0.921
96 | RRIRARPPRLPRPRPRPRDGPRP | 1.3
97 | RRIRGRPPRLPRPRPRPEWEPRP | 0.00476
98 | RRIRRRPPRLPRPRPRPLMQPRP | 0.396
99 | RRIRTRPPRLPRPRPRPEDTPRP | -0.045
100 | RRIRERPPRLPRPRPRPWFIPRP | -0.00655
101 | RRIRFRPPRLPRPRPRPTMIPRP | -0.941
102 | RRIRGRPPRLPRPRPRPQEKPRP | 0.0562
103 | RRIRTRPPRLPRPRPRPAVRPRP | 0.203
104 | RRIRSRPPRLPRPRPRPQESPRP | -0.0242
105 | RRIRTRPPRLPRPRPRPKARPRP | 0.0672
106 | RRIRPRPPRLPRPRPRPEVFPRP | 0.0976
107 | RRIRGRPPRLPRPRPRPAAQPRP | 1.12
108 | RRIRQRPPRLPRPRPRPHELPRP | -0.00752
109 | RRIRERPPRLPRPRPRPFKVPRP | 0.14
